Experimental data published in the supplement of paper PMC9876800.

Test system: peptide library, one residue held at a place counted from the S/T acceptor
Assay: relative phosphorylation of the sub-library (ratio to the mean residue at this position); higher = residue favoured
Conditions: human
In short: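 Each biotinylated degenerate peptide sub-library fixed one residue at one position around a central Ser/Thr and was incubated with a purified recombinant kinase, a human or orthologue construct, in 384-well plates. The 90 min reactions, under kinase-specific conditions, contained 50 μM peptide and 50 μM ATP spiked with γ-32P-ATP. Phosphorylation was read by phosphorimaging spots on streptavidin membranes and quantifying them by densitometry. Relative sub-library phosphorylation expresses each value as a ratio to the mean residue at that position.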

Sequence of PNCK, construct: Full length (Q6P2M8 whole entry, looked up): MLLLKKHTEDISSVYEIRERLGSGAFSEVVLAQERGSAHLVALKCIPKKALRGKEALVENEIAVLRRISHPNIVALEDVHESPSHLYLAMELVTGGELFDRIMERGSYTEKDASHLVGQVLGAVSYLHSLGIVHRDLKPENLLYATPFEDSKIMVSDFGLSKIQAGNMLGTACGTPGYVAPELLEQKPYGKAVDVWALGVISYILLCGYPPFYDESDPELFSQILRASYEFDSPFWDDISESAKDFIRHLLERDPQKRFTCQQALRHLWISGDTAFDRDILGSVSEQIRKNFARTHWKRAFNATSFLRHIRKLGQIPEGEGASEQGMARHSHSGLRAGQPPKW
Sequence of PRKAA2, construct: Full length (P54646 whole entry, looked up): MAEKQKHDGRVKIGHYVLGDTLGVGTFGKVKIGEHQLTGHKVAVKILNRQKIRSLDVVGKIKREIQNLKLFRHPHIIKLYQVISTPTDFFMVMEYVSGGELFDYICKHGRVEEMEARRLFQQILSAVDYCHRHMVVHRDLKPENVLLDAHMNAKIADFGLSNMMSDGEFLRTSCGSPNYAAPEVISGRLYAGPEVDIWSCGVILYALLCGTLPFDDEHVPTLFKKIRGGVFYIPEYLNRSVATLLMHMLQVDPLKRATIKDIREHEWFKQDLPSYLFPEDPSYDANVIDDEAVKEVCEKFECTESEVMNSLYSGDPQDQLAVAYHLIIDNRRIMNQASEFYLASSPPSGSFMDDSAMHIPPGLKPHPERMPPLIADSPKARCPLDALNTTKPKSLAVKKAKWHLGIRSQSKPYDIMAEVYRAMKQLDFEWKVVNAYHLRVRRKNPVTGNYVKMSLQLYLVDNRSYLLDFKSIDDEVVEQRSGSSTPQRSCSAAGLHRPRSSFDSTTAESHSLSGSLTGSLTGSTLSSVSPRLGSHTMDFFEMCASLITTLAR
Sequence of PRKAA1, construct: Full length (Q13131 whole entry, looked up): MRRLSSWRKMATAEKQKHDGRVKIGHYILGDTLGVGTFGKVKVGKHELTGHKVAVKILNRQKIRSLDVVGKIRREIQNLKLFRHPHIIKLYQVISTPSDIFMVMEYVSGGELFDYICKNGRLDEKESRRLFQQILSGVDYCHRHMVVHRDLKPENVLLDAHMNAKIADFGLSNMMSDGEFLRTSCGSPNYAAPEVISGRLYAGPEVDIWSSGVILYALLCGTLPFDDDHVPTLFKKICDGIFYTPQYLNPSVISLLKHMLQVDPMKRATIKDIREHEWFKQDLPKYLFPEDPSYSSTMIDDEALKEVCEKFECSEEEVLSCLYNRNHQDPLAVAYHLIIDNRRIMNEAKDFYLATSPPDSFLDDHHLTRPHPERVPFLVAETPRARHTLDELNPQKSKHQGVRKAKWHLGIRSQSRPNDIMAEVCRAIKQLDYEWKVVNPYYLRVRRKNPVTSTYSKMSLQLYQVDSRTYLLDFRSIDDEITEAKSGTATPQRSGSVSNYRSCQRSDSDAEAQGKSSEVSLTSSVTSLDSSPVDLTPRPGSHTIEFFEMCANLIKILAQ

PNCK, construct: Full length (from UniProt Q6P2M8)
relative phosphorylation
Conditions | at +1 | at +2 | at +3 | at +4 | at -1 | at -2 | at -3 | at -4 | at -5
A fixed | 0.986 | 1.09 | 1 | 0.953 | 0.983 | 1.03 | 0.881 | 0.95 | 0.856
D fixed | 0.844 | 1.03 | 1.2 | 1.01 | 1.07 | 0.666 | 0.626 | 0.713 | 0.718
E fixed | 0.919 | 1.03 | 1.07 | 0.985 | 0.92 | 0.678 | 0.644 | 0.803 | 0.726
F fixed | 1.37 | 0.986 | 1 | 1.07 | 0.904 | 0.687 | 0.659 | 0.921 | 1.12
G fixed | 0.879 | 0.871 | 1.01 | 1.01 | 1.01 | 0.814 | 0.678 | 0.863 | 0.833
H fixed | 0.96 | 1.28 | 1.02 | 0.93 | 1.06 | 0.826 | 0.799 | 0.921 | 0.839
I fixed | 0.869 | 1.01 | 0.851 | 1.13 | 0.785 | 0.795 | 0.741 | 1.06 | 1.12
K fixed | 1.13 | 0.889 | 0.962 | 0.927 | 1.32 | 1.88 | 1.84 | 1.7 | 1.13
L fixed | 0.866 | 0.98 | 0.913 | 1.2 | 0.826 | 0.764 | 0.694 | 1.1 | 1.56
M fixed | 0.938 | 0.893 | 0.876 | 0.982 | 0.869 | 0.855 | 0.668 | 0.986 | 1.07
N fixed | 1.06 | 0.966 | 1.26 | 0.96 | 1.41 | 0.934 | 0.732 | 0.892 | 0.822
P fixed | 0.777 | 0.914 | 0.92 | 1.07 | 1.07 | 0.641 | 0.649 | 0.787 | 0.994
Q fixed | 1.19 | 0.947 | 0.976 | 1 | 0.983 | 1.46 | 0.826 | 1.01 | 0.958
R fixed | 1.39 | 1.02 | 0.958 | 0.875 | 1.32 | 2.64 | 4.54 | 1.49 | 1.44
V fixed | 0.873 | 1.02 | 0.885 | 0.991 | 0.795 | 0.8 | 0.679 | 1.05 | 0.956
W fixed | 0.909 | 0.916 | 1.02 | 0.989 | 0.81 | 0.829 | 0.7 | 0.835 | 0.873
Y fixed | 1.02 | 1.14 | 1.08 | 0.91 | 0.86 | 0.706 | 0.644 | 0.91 | 0.973
pThr fixed | 1.16 | 1.29 | 1.1 | 1.13 | 0.832 | 0.701 | 0.723 | 0.902 | 0.774
pTyr fixed | 1.12 | 2.97 | 1.42 | 1.04 | 1.02 | 0.701 | 0.684 | 0.799 | 0.897

PRKAA1, construct: Full length (from UniProt Q13131)
relative phosphorylation
Conditions | at +1 | at +2 | at +3 | at +4 | at -1 | at -2 | at -3 | at -4 | at -5
A fixed | 0.927 | 1.41 | 0.812 | 0.574 | 1.05 | 1.27 | 0.845 | 1.21 | 0.908
D fixed | 0.609 | 0.529 | 1.53 | 0.606 | 0.666 | 0.413 | 0.32 | 0.497 | 0.381
E fixed | 0.781 | 0.496 | 0.935 | 0.516 | 0.578 | 0.475 | 0.453 | 0.63 | 0.374
F fixed | 1.63 | 0.899 | 1.1 | 1.25 | 0.643 | 0.718 | 0.516 | 0.682 | 1.2
G fixed | 0.773 | 0.759 | 0.902 | 0.659 | 1.4 | 1.05 | 0.889 | 1.2 | 0.857
H fixed | 1.18 | 1.48 | 1.5 | 0.757 | 1.11 | 1.28 | 1.28 | 1.19 | 0.816
I fixed | 0.75 | 1.38 | 0.705 | 2.17 | 0.379 | 0.944 | 0.402 | 0.659 | 1.41
K fixed | 1 | 0.723 | 1.15 | 0.753 | 1.93 | 1.73 | 2.54 | 2.1 | 1.35
L fixed | 0.813 | 1.23 | 0.803 | 2.67 | 0.63 | 0.541 | 0.45 | 0.643 | 1.63
M fixed | 1.49 | 0.855 | 0.833 | 1.89 | 0.972 | 0.638 | 0.609 | 0.895 | 1.5
N fixed | 0.86 | 1.08 | 1.55 | 0.775 | 1.12 | 1.7 | 0.869 | 0.947 | 0.724
P fixed | 0.231 | 1.31 | 0.39 | 0.767 | 1.32 | 0.783 | 1.04 | 1.19 | 0.944
Q fixed | 1.23 | 0.893 | 0.996 | 0.704 | 1.31 | 0.92 | 0.879 | 0.888 | 0.847
R fixed | 1.24 | 0.649 | 1.09 | 0.691 | 1.66 | 1.81 | 4.12 | 2.17 | 1.71
V fixed | 0.893 | 1.48 | 0.65 | 0.969 | 0.589 | 1.3 | 0.477 | 0.728 | 0.784
W fixed | 1.35 | 0.922 | 1.19 | 0.693 | 0.782 | 0.705 | 0.633 | 0.681 | 0.731
Y fixed | 1.23 | 0.897 | 0.866 | 0.556 | 0.87 | 0.716 | 0.677 | 0.705 | 0.836
pThr fixed | 0.737 | 0.513 | 0.427 | 0.606 | 0.418 | 0.679 | 0.632 | 0.724 | 0.726
pTyr fixed | 0.604 | 0.5 | 0.601 | 0.485 | 0.685 | 0.568 | 0.51 | 0.492 | 0.778

PRKAA2, construct: Full length (from UniProt P54646)
relative phosphorylation
Conditions | at +1 | at +2 | at +3 | at +4 | at -1 | at -2 | at -3 | at -4 | at -5
A fixed | 1.05 | 1.53 | 0.803 | 0.597 | 1.14 | 1.34 | 0.699 | 1.19 | 0.889
D fixed | 0.54 | 0.575 | 1.53 | 0.614 | 0.593 | 0.42 | 0.258 | 0.419 | 0.336
E fixed | 0.708 | 0.492 | 0.805 | 0.454 | 0.495 | 0.427 | 0.368 | 0.546 | 0.308
F fixed | 1.88 | 0.855 | 1.01 | 1.27 | 0.734 | 0.655 | 0.4 | 0.67 | 1.3
G fixed | 0.711 | 0.724 | 0.933 | 0.637 | 1.38 | 0.933 | 0.739 | 1.13 | 0.815
H fixed | 1.15 | 1.48 | 2.39 | 0.747 | 1.12 | 1.18 | 1.26 | 1.26 | 0.8
I fixed | 0.565 | 1.19 | 0.531 | 2.12 | 0.339 | 0.925 | 0.335 | 0.577 | 1.42
K fixed | 1.01 | 0.689 | 1.01 | 0.777 | 1.9 | 1.62 | 2.75 | 2.22 | 1.27
L fixed | 0.814 | 1.29 | 0.677 | 2.7 | 0.714 | 0.548 | 0.398 | 0.692 | 1.64
M fixed | 1.33 | 0.833 | 0.693 | 2.04 | 0.978 | 0.575 | 0.473 | 0.928 | 1.51
N fixed | 0.942 | 1.18 | 1.69 | 0.864 | 1.16 | 1.93 | 0.821 | 0.801 | 0.684
P fixed | 0.269 | 1.37 | 0.41 | 0.789 | 1.51 | 0.826 | 0.991 | 1.31 | 0.964
Q fixed | 1.41 | 1.03 | 0.978 | 0.806 | 1.22 | 0.981 | 0.851 | 0.874 | 0.825
R fixed | 1.23 | 0.652 | 1.06 | 0.618 | 1.58 | 1.84 | 5.14 | 2.31 | 1.89
V fixed | 0.779 | 1.34 | 0.506 | 0.876 | 0.49 | 1.47 | 0.365 | 0.7 | 0.769
W fixed | 1.35 | 0.966 | 1.16 | 0.617 | 0.73 | 0.661 | 0.559 | 0.666 | 0.723
Y fixed | 1.27 | 0.806 | 0.808 | 0.479 | 0.903 | 0.676 | 0.596 | 0.713 | 0.854
pThr fixed | 0.69 | 0.503 | 0.35 | 0.709 | 0.324 | 0.504 | 0.49 | 0.644 | 0.588
pTyr fixed | 0.649 | 0.452 | 0.57 | 0.529 | 0.607 | 0.533 | 0.471 | 0.475 | 0.696

PRKCA, construct: Full length (from UniProt P17252)
relative phosphorylation
Conditions | at +1 | at +2 | at +3 | at +4 | at -1 | at -2 | at -3 | at -4 | at -5
A fixed | 0.485 | 0.407 | 0.553 | 0.819 | 0.905 | 0.911 | 0.726 | 1.03 | 1.09
D fixed | 0.185 | 0.216 | 0.528 | 0.597 | 0.541 | 0.467 | 0.389 | 0.578 | 0.646
E fixed | 0.21 | 0.16 | 0.526 | 0.514 | 0.472 | 0.407 | 0.439 | 0.724 | 0.643
F fixed | 1.74 | 0.477 | 1.01 | 0.553 | 0.637 | 0.727 | 0.963 | 0.892 | 1.14
G fixed | 0.648 | 0.42 | 1.16 | 1.46 | 2.07 | 1.34 | 1.23 | 1.47 | 1.53
H fixed | 0.597 | 1.23 | 1.12 | 1.09 | 0.948 | 0.985 | 1.05 | 1.04 | 0.997
I fixed | 1.64 | 0.499 | 0.602 | 0.58 | 0.389 | 0.413 | 0.501 | 0.59 | 0.646
K fixed | 1.69 | 3.79 | 1.99 | 2.3 | 1.88 | 1.79 | 1.6 | 1.39 | 1.43
L fixed | 1.42 | 0.395 | 0.843 | 0.499 | 0.638 | 0.469 | 0.493 | 0.549 | 0.688
M fixed | 1.33 | 0.571 | 0.741 | 0.564 | 0.826 | 0.678 | 0.796 | 0.649 | 0.626
N fixed | 0.561 | 0.86 | 0.918 | 1.04 | 1.39 | 1.08 | 1.2 | 0.915 | 0.877
P fixed | 0.364 | 0.401 | 0.697 | 1.55 | 1.26 | 1.13 | 1.43 | 1.45 | 1.22
Q fixed | 1.41 | 0.684 | 1.03 | 0.926 | 1.04 | 1.15 | 0.886 | 1.12 | 0.716
R fixed | 1.87 | 4.65 | 2.46 | 2.26 | 2.01 | 3.23 | 3.44 | 1.59 | 1.84
V fixed | 1.26 | 0.464 | 0.662 | 0.703 | 0.661 | 0.522 | 0.447 | 0.92 | 0.638
W fixed | 0.729 | 0.586 | 0.972 | 0.797 | 0.475 | 1 | 0.589 | 1.28 | 1.38
Y fixed | 0.867 | 1.19 | 1.19 | 0.747 | 0.862 | 0.686 | 0.811 | 0.805 | 0.884
pThr fixed | 0.729 | 0.345 | 0.663 | 0.482 | 0.348 | 0.603 | 0.636 | 0.807 | 0.655
pTyr fixed | 0.38 | 0.31 | 0.58 | 0.427 | 0.983 | 0.679 | 0.98 | 0.802 | 1.11
